What was measured:
[1] = test system: Nc1ncnc2c1ncn2[C@@H]1O[C@H](COP(=O)(O)OP(=O)(O)OP(=O)(O)O)[C@@H](O)[C@H]1O; assay: purified protein, by the assay type; conditions: other: substrate Km of the recombinant UMP/CMP kinase from U. maydis, Lineweaver-Burk plot (FIG. 4A/4B)
Description: The ADP produced in the reaction is measured by the coupled reaction with pyruvate kinase and lactate dehydrogenase. Here the pyruvate produced in the reaction of the pyruvate kinase is converted to lactate by the lactate dehydrogenase with the use of NADH.
The activity and/or decrease or increase in activity of the inventive polypeptide can therefore occur by coupling this reaction with the enzymatic conversion of the ADP by the pyruvate kinase and the subsequent enzymatic conversion by the lactate dehydrogenase of the pyruvate produced. This makes use of the fact that the pyruvate produced in the reaction of the pyruvate kinase is converted to lactate by the lactate dehydrogenase (LDH) with the consumption of NADH.
The co-substrate NADH consumed in the reaction of the LDH has an extinction maximum at 340 nm.

[2] = test system: O=c1ccn([C@@H]2O[C@H](COP(=O)(O)O)[C@@H](O)[C@H]2O)c(=O)[nH]1; assay: purified protein, by the assay type; conditions: other: substrate Km of the recombinant UMP/CMP kinase from U. maydis, Lineweaver-Burk plot (FIG. 4A/4B)

UMP/CMP kinase from Ustilago maydis (Mycosarcoma maydis)
Km [1]: 60 µM
Km [2]: 120 µM
